In US20140154252A1 (EMERGENT PRODUCT DEVELOPMENT SEATTLE, published 2014):
Changes are numbered by the printed parent chain. Names may count otherwise. Values belong to the binder of their own block, whether it stands above or below them.

Key:
[1] = target: T1, CD28 presented on CHO cells (UniProt P10747 19-220, limits assumed); assay: flow cytometry, lower graph taken as panel B of the legend = CD28 CHO cells; FITC goat anti-human IgG [lower graph]
T1 construct: whole, on cells; also called CD28 CHO; CD28-expressing CHO cells
Procedure: (§1) Seeded plates containing the proteins were incubated on ice for one hour. Subsequently, the wells were washed once with 200 μl 1% FBS in PBS. Goat anti-human antibody labeled with FITC (Fc Sp) at 1:100 was then added to each well, and the plates were again incubated on ice for one hour. The plates were then washed once with 200 μl 1% FBS in PBS and the cells were re-suspended in 200 μl 1% FBS and analyzed by FACS.
(§2) To assess the binding properties of the anti-CD28 peptide 2E12 VHVL, CD28-expressing CHO cells were plated by seeding in individual wells of a culture plate. […] The 2E12IgGvHvL SMIP purified protein was added to individual seeded wells, again using a two-fold dilution scheme, i.e., from 20 μg/ml down to […]. One well received no protein to provide a background control. The plates were then incubated on ice for one hour, washed once with 200 μl 1% FBS in PBS, and goat anti-human antibody labeled with FITC (Fc Sp) at 1:100 was added to each well. The plates were again incubated on ice for one hour and subsequently washed once with 200 μl 1% FBS in PBS. Following re-suspension of the cells in 200 μl 1% FBS, FACS analysis was performed.

CD28mIgG = target: T2, CD28mIgG (UniProt P10747 19-152); assay: sandwich flow cytometry: fusion protein titrated on WIL-2S cells (held by CD20), then CD28mIgG, then FITC anti-mouse
T2 construct: Bought reagent; the construct is not described; also called CD28Ig (Ancell); CD28 fused to mouse antibody; not shown: mouse Ig part of the bought fusion; not described

CD20 [2] = target: T3, CD20 (human, UniProt P11836 1-297); assay: flow cytometry, upper graph taken as panel A of the legend = WIL-2S cells (CD20); FITC goat anti-human IgG [upper graph]
T3 construct: whole, on cells; 2H7 is called murine anti-human CD20; also called CD20 presented on WIL-2S cells; CD20 on Ramos, BJAB, SU-DHL-6 and DoHH2 B cells
T3 sequence (looked up): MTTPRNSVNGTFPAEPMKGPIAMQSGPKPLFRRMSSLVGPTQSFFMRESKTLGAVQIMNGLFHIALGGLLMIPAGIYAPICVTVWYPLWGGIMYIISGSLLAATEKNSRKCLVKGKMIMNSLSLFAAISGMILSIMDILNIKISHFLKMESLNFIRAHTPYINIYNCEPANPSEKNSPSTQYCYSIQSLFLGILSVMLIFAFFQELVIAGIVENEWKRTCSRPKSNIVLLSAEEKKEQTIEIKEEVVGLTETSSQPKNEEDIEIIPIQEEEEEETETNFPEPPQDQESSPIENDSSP
Procedure: as §1, §2

CD20 [3] = target: T3, CD20; assay: flow cytometry on WIL2-S cells (CD20), protein A purified protein at 0.72 ug/ml, FITC goat anti-human IgG
Procedure: “L1-L6” refers to the 2H7-sss-hIgG-Lx-2e12 molecules where […] represents the L1-L6 linkers and the 2e12 V regions in the orientation of VL-VH. All the molecules were tested at a concentration of 0.72 μg/ml, and the binding detected using FITC conjugated goat anti-human IgG at 1:100.

CD20 [4] = target: T3, CD20; assay: flow cytometry on WIL2S cells (CD20), FITC goat anti-human IgG; no unit printed on the axis (legend: ug/ml)

EC50 (read off the curve) [1]: ~0.8 µg/mL
EC50 (read off the curve) (CD28mIgG): ~0.4 µg/mL
EC50 (read off the curve) (CD20 [2]): ~1 µg/mL
B1: 2H7-sss-hIgG P238S/P331S-H3-2e12 VHVL (bispecific antibody)
chain: QIVLSQSPAILSASPGEKVTMTCRASSSVSYMHWYQQKPGSSPKPWIYAPSNLASGVPARFSGSGSGTSYSLTISRVEAEDAATYYCQQWSFNPPTFGAGTKLELKDGGGSGGGGSGGGGSSQAYLQQSGAESVRPGASVKMSCKASGYTFTSYNMHWVKQTPRQGLEWIGAIYPGNGDTSYNQKFKGKATLTVDKSSSTAYMQLSSLTSEDSAVYFCARVVYYSNSYWYFDVWGTGTTVTVSEPKSSDKTHTSPPSPAPELLGGSSVFLFPPKPKDTLMISRTPEVTCVVVDVSHEDPEVKFNWYVDGVEVHNAKTKPREEQYNSTYRVVSVLTVLHQDWLNGKEYKCKVSNKALPASIEKTISKAKGQPREPQVYTLPPSRDELTKNQVSLTCLVKGFYPSDIAVEWESNGQPENNYKTTPPVLDSDGSFFLYSKLTVDKSRWQQGNVFSCSVMHEALHNHYTQKSLSLSPGKNYGGGGSGNSQVQLKESGPGLVAPSQSLSITCTVSGFSLTGYGVNWVRQPPGKGLEWLGMIWGDGSTDYNSALKSRLSITKDNSKSQVFLKMNSLQTDDTARYYCARDGYSNFHYYVMDYWGQGTSVTVSSGGGGSGGGGSGGGGSGGGGSDIVLTQSPASLAVSLGQRATISCRASESVEYYVTSLMQWYQQKPGQPPKLLISAASNVESGVPARFSGSGSGTDFSLNIHPVEEDDIAMYFCQQSRKVPWTFGGGTKLEIKR
notes: Assembled from modules as m11; also called 2H7-sss-hIgG-H3-2e12 HL

binding result (CD20 [3]): binds
B2: 2H7-sss-hIgG-L4-2e12 (H4 linker, 2e12 VL-VH) (bispecific antibody)
chain (part 1 of 2): QIVLSQSPAILSASPGEKVTMTCRASSSVSYMHWYQQKPGSSPKPWIYAPSNLASGVPARFSGSGSGTSYSLTISRVEAEDAATYYCQQWSFNPPTFGAGTKLELKDGGGSGGGGSGGGGSSQAYLQQSGAESVRPGASVKMSCKASGYTFTSYNMHWVKQTPRQGLEWIGAIYPGNGDTSYNQKFKGKATLTVDKSSSTAYMQLSSLTSEDSAVYFCARVVYYSNSYWYFDVWGTGTTVTVSEPKSSDKTHTSPPSP
chain (part 2 of 2): GGGGSGGGGSGNSDIVLTQSPASLAVSLGQRATISCRASESVEYYVTSLMQWYQQKPGQPPKLLISAASNVESGVPARFSGSGSGTDFSLNIHPVEEDDIAMYFCQQSRKVPWTFGGGTKLEIKRGGGGSGGGGSGGGGSQVQLKESGPGLVAPSQSLSITCTVSGFSLTGYGVNWVRQPPGKGLEWLGMIWGDGSTDYNSALKSRLSITKDNSKSQVFLKMNSLQTDDTARYYCARDGYSNFHYYVMDYWGQGTSVTVSS
notes: Assembled from modules as m10; not shown: human IgG1 CH2-CH3

binding result (CD20 [4]): binds
B3: 2H7-sss-hIgG-STD1-G19-4 HL (bispecific antibody)
chain (part 1 of 2): B2 chain (part 1 of 2)
chain (part 2 of 2): NYGGGGSGGGGSGGGGSGNSEVQLQQSGPELVKPGASMKISCKASGYSFTGYIVNWLKQSHGKNLEWIGLINPYKGLTTYNQKFKGKATLTVDKSSSTAYMELLSLTSEDSAVYYCARSGYYGDSDWYFDVWGAGTTVTVSSGGGGSGGGGSGGGGSASDIQMTQTTSSLSASLGDRVTISCRASQDIRNYLNWYQQKPDGTVKLLIYYTSRLHSGVPSRFSGSGSGTDYSLTIANLQPEDIATYFCQQGNTLPWTFGGGTKLVTKRS
notes: Assembled from modules; also called 2H7sssIgG1-STD1-G19-4 HL; CD20-hIgG-CD3 multispecific molecule (SSS hinge, HL); not shown: human IgG1 CH2-CH3

binding result (CD20 [3]): binds
B4: 2H7-sss-hIgG-L1-2e12 (H1 linker, 2e12 VL-VH) (bispecific antibody)
chain (part 1 of 2): B2 chain (part 1 of 2)
chain (part 2 of 2): NSDIVLTQSPASLAVSLGQRATISCRASESVEYYVTSLMQWYQQKPGQPPKLLISAASNVESGVPARFSGSGSGTDFSLNIHPVEEDDIAMYFCQQSRKVPWTFGGGTKLEIKRGGGGSGGGGSGGGGSQVQLKESGPGLVAPSQSLSITCTVSGFSLTGYGVNWVRQPPGKGLEWLGMIWGDGSTDYNSALKSRLSITKDNSKSQVFLKMNSLQTDDTARYYCARDGYSNFHYYVMDYWGQGTSVTVSS
notes: as for B2

binding result (CD20 [3]): binds
B5: 2H7-sss-hIgG-L3-2e12 (H3 linker, 2e12 VL-VH) (bispecific antibody)
chain (part 1 of 2): B2 chain (part 1 of 2)
chain (part 2 of 2): NYGGGGSGNSDIVLTQSPASLAVSLGQRATISCRASESVEYYVTSLMQWYQQKPGQPPKLLISAASNVESGVPARFSGSGSGTDFSLNIHPVEEDDIAMYFCQQSRKVPWTFGGGTKLEIKRGGGGSGGGGSGGGGSQVQLKESGPGLVAPSQSLSITCTVSGFSLTGYGVNWVRQPPGKGLEWLGMIWGDGSTDYNSALKSRLSITKDNSKSQVFLKMNSLQTDDTARYYCARDGYSNFHYYVMDYWGQGTSVTVSS
notes: as for B2

binding result (CD20 [3]): binds
B6: 2H7-sss-hIgG-L2-2e12 (H2 linker, 2e12 VL-VH) (bispecific antibody)
chain (part 1 of 2): B2 chain (part 1 of 2)
chain (part 2 of 2): GGGGSGNSDIVLTQSPASLAVSLGQRATISCRASESVEYYVTSLMQWYQQKPGQPPKLLISAASNVESGVPARFSGSGSGTDFSLNIHPVEEDDIAMYFCQQSRKVPWTFGGGTKLEIKRGGGGSGGGGSGGGGSQVQLKESGPGLVAPSQSLSITCTVSGFSLTGYGVNWVRQPPGKGLEWLGMIWGDGSTDYNSALKSRLSITKDNSKSQVFLKMNSLQTDDTARYYCARDGYSNFHYYVMDYWGQGTSVTVSS
notes: as for B2

binding result (CD20 [4]): binds
B7: 2H7-csc-hIgG-STD1-G19-4 HL (bispecific antibody)
chain (part 1 of 2): B2 chain (part 1 of 2) with S248C, S257C
chain (part 2 of 2): B3 chain (part 2 of 2)
notes: Assembled from modules; also called CD20-hIgG-CD3 multispecific molecule (CSC hinge, HL); not shown: human IgG1 CH2-CH3

EC50 (read off the curve) [1]: ~0.5 µg/mL
EC50 (read off the curve) (CD28mIgG): ~0.3 µg/mL
EC50 (read off the curve) (CD20 [2]): ~1 µg/mL
B8: 2H7-sss-hIgG-H7-2e12 HL (bispecific antibody)
chain: QIVLSQSPAILSASPGEKVTMTCRASSSVSYMHWYQQKPGSSPKPWIYAPSNLASGVPARFSGSGSGTSYSLTISRVEAEDAATYYCQQWSFNPPTFGAGTKLELKDGGGSGGGGSGGGGSSQAYLQQSGAESVRPGASVKMSCKASGYTFTSYNMHWVKQTPRQGLEWIGAIYPGNGDTSYNQKFKGKATLTVDKSSSTAYMQLSSLTSEDSAVYFCARVVYYSNSYWYFDVWGTGTTVTVSEPKSSDKTHTSPPSPAPELLGGSSVFLFPPKPKDTLMISRTPEVTCVVVDVSHEDPEVKFNWYVDGVEVHNAKTKPREEQYNSTYRVVSVLTVLHQDWLNGKEYKCKVSNKALPASIEKTISKAKGQPREPQVYTLPPSRDELTKNQVSLTCLVKGFYPSDIAVEWESNGQPENNYKTTPPVLDSDGSFFLYSKLTVDKSRWQQGNVFSCSVMHEALHNHYTQKSLSLSPGKGCPPCPNSQVQLKESGPGLVAPSQSLSITCTVSGFSLTGYGVNWVRQPPGKGLEWLGMIWGDGSTDYNSALKSRLSITKDNSKSQVFLKMNSLQTDDTARYYCARDGYSNFHYYVMDYWGQGTSVTVSSGGGGSGGGGSGGGGSGGGGSDIVLTQSPASLAVSLGQRATISCRASESVEYYVTSLMQWYQQKPGQPPKLLISAASNVESGVPARFSGSGSGTDFSLNIHPVEEDDIAMYFCQQSRKVPWTFGGGTKLEIKR
notes: Assembled from modules as m11; also called 2H7-sss-IgG-H7-2e12-HL

EC50 (read off the curve) [1]: ~0.8 µg/mL
EC50 (read off the curve) (CD28mIgG): ~0.3 µg/mL
EC50 (read off the curve) (CD20 [2]): ~1 µg/mL
B9: 2H7-sss-hIgG P238S/P331S-H6-2e12 VHVL (bispecific antibody)
chain: QIVLSQSPAILSASPGEKVTMTCRASSSVSYMHWYQQKPGSSPKPWIYAPSNLASGVPARFSGSGSGTSYSLTISRVEAEDAATYYCQQWSFNPPTFGAGTKLELKDGGGSGGGGSGGGGSSQAYLQQSGAESVRPGASVKMSCKASGYTFTSYNMHWVKQTPRQGLEWIGAIYPGNGDTSYNQKFKGKATLTVDKSSSTAYMQLSSLTSEDSAVYFCARVVYYSNSYWYFDVWGTGTTVTVSEPKSSDKTHTSPPSPAPELLGGSSVFLFPPKPKDTLMISRTPEVTCVVVDVSHEDPEVKFNWYVDGVEVHNAKTKPREEQYNSTYRVVSVLTVLHQDWLNGKEYKCKVSNKALPASIEKTISKAKGQPREPQVYTLPPSRDELTKNQVSLTCLVKGFYPSDIAVEWESNGQPENNYKTTPPVLDSDGSFFLYSKLTVDKSRWQQGNVFSCSVMHEALHNHYTQKSLSLSPGKGGGGSGGGGSGGGGSGNSQVQLKESGPGLVAPSQSLSITCTVSGFSLTGYGVNWVRQPPGKGLEWLGMIWGDGSTDYNSALKSRLSITKDNSKSQVFLKMNSLQTDDTARYYCARDGYSNFHYYVMDYWGQGTSVTVSSGGGGSGGGGSGGGGSGGGGSDIVLTQSPASLAVSLGQRATISCRASESVEYYVTSLMQWYQQKPGQPPKLLISAASNVESGVPARFSGSGSGTDFSLNIHPVEEDDIAMYFCQQSRKVPWTFGGGTKLEIKR
notes: Assembled from modules as m11; The preparation held a share of cleaved, SMIP-sized molecules; also called 2H7-sss-hIgG-H6-2e12
